The source of these data is the supplement of paper PMC10899765.

What all share (details): 20 nM; 72 h
For data set [1], the system named is MCF10A. Description: 5+ nucleoli phenotype percent effect (relative to siNT 0% and siKIF11 100%); higher = more cells with five or more nucleoli. The procedure:
(§1)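 After 72 h, cells were fixed and stained with Hoechst and anti-fibrillarin, and nucleoli per nucleus were counted with CellProfiler. Values are plate-adjusted percent effect for the one-nucleolus and 5+ nucleoli phenotypes, normalised to siNT (0%) and to the positive controls siNOL11 or siKIF11 (100%), as the mean of biological triplicates. Percent viability is the nuclei count relative to siNT.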

Data set [2] relates to MCF10A. In words: one-nucleolus phenotype percent effect (relative to siNT 0% and siNOL11 100%); higher = more cells with one nucleolus (ribosome biogenesis inhibition). Here is the method:
as §1

The test system of data set [3] is MCF10A. In words: percent viability (nuclei count relative to siNT); higher = more viable cells. Here is the method:
as §1

In the case of “AAUUUGGUUUCUGAGGCACUUAGU [hsa-miR-5002-5p]”, the “5+ nucleoli phenotype percent effect” value in the data set on MCF10A [1] is 1.85%. In the data set on MCF10A [2], the “one-nucleolus phenotype percent effect” value came out at 27.3%. Moreover, the percent viability in the data set on MCF10A [3] turned out to be 32.2%.
As to UGAGAACCACGUCUGCUCUGAG [hsa-miR-589-5p], the “5+ nucleoli phenotype percent effect” value in the data set on MCF10A [1] is -4.96%. Besides, the “one-nucleolus phenotype percent effect” value in the data set on MCF10A [2] is -14.3%. Further, the percent viability in the data set on MCF10A [3] stood at 88.9%.
In the case of UUACGGACCAGCUAAGGGAGGC [hsa-miR-4788], the “5+ nucleoli phenotype percent effect” value in the data set with MCF10A [1] is 9.13%. In the data set on MCF10A [2], the “one-nucleolus phenotype percent effect” value was -0.639%. Further, the percent viability in the data set on MCF10A [3] came to 43.7%.
Take AAACCUGUGUUGUUCAAGAGUC [hsa-miR-649]: in the data set on MCF10A [1], the “5+ nucleoli phenotype percent effect” value is 34.7%. In addition, in the data set on MCF10A [2], the “one-nucleolus phenotype percent effect” value is -16.6%. Besides, the percent viability in the data set with MCF10A [3] came out at 113%.
On to GACCUGGACAUGUUUGUGCCCAGU [hsa-miR-619], for which the “5+ nucleoli phenotype percent effect” value in the data set on MCF10A [1] came out at 64.8%. The “one-nucleolus phenotype percent effect” value with MCF10A [2] was -30.8%. In addition, the percent viability in the data set with MCF10A [3] amounted to 128%.
In the case of “UAAUGCCCCUAAAAAUCCUUAU [hsa-miR-365a-3p]”, the “5+ nucleoli phenotype percent effect” value with MCF10A [1] stood at 6.01%. The “one-nucleolus phenotype percent effect” value in the data set with MCF10A [2] stood at 2.74%. Besides, the percent viability with MCF10A [3] was determined as 89.5%.
In the same order, the values of “AGAAAGGUGGAGGGGUUGUCAGA [hsa-miR-6730-5p]” are -33.5%, 47.3% and 24.7%.
As for “AGGCAGUGUAGUUAGCUGAUUGC [hsa-miR-34c-5p]”, the “5+ nucleoli phenotype percent effect” value with MCF10A [1] was -6.79%. Besides, in the data set with MCF10A [2], the “one-nucleolus phenotype percent effect” value was 38.8%. Also, in the data set with MCF10A [3], the percent viability amounted to 13.2%.
In the same order, the values of GCAGGAACUUGUGAGUCUCCU [hsa-miR-873-5p] are 31.2%, -17.4% and 122%.
Turning to AGGCUGGAGUGAGCGGAG [hsa-miR-4430], the “5+ nucleoli phenotype percent effect” value with MCF10A [1] was -22%. For the same sequence, the “one-nucleolus phenotype percent effect” value with MCF10A [2] came out at 57.5%. The percent viability in the data set with MCF10A [3] is 12.7%.
CGGUGAGCGCUCGCUGGC [hsa-miR-4792]: the “5+ nucleoli phenotype percent effect” value in the data set with MCF10A [1] was -30.2%. In the data set on MCF10A [2], the “one-nucleolus phenotype percent effect” value worked out at 21.1%. The percent viability in the data set with MCF10A [3] was 36.6%.
The like results for “CGGGUGGGAGCAGAUCUUAUUGAG [hsa-miR-6766-5p]” were, in that order, 56.1%, -20.9% and 76.6%.
Regarding “AAAAGUGCUUACAGUGCAGGUAG [hsa-miR-106a-5p]”, the “5+ nucleoli phenotype percent effect” value in the data set on MCF10A [1] was found to be 22.1%. Also, in the data set on MCF10A [2], the “one-nucleolus phenotype percent effect” value is -17.6%. For the same sequence, the percent viability with MCF10A [3] was 48.8%.
For the sequence AAAAGUAAUUGCGGUCUUU [hsa-miR-548ap-5p], the “5+ nucleoli phenotype percent effect” value in the data set with MCF10A [1] was 39.1%. The “one-nucleolus phenotype percent effect” value with MCF10A [2] is -19%. Also, the percent viability with MCF10A [3] worked out at 121%.
In the same order, the values of “UUCAUGAACUGGGUCUAGCUUGG [hsa-miR-7154-5p]” are -0.807%, -15.2% and 60.8%.
In the same order, the values of UACUGCAGACAGUGGCAAUCA [hsa-miR-509-5p] are 5.43%, 7.14% and 48.8%.
As to “UGCCUACUGAGCUGAUAUCAGU [hsa-miR-24-1-5p]”, the “5+ nucleoli phenotype percent effect” value with MCF10A [1] was -18%. In addition, in the data set on MCF10A [2], the “one-nucleolus phenotype percent effect” value worked out at 3.46%. In the data set with MCF10A [3], the percent viability came to 49.2%.
Consider CACAGGCUUAGAAAAGACAGU [hsa-miR-4438], for which, in the data set on MCF10A [1], the “5+ nucleoli phenotype percent effect” value worked out at 25.6%. The “one-nucleolus phenotype percent effect” value in the data set with MCF10A [2] was -2.67%. Further, the percent viability in the data set on MCF10A [3] was determined as 11.8%.
As for AUCUGACCUGAUGAAGGU [hsa-miR-4256], in the data set on MCF10A [1], the “5+ nucleoli phenotype percent effect” value came to 5.64%. Besides, the “one-nucleolus phenotype percent effect” value in the data set on MCF10A [2] came out at 30.3%. For the same sequence, the percent viability with MCF10A [3] stood at 11.7%.
For “CAUGCUGACCUCCCUCCUGCCCCAG [hsa-miR-4728-3p]”, the “5+ nucleoli phenotype percent effect” value in the data set on MCF10A [1] came to 20.8%. In the data set on MCF10A [2], the “one-nucleolus phenotype percent effect” value was -12.7%. For the same sequence, the percent viability with MCF10A [3] is 69.7%.
For CAGGGAGGUGAAUGUGAU [hsa-miR-1321], the “5+ nucleoli phenotype percent effect” value with MCF10A [1] was found to be 6.81%. The “one-nucleolus phenotype percent effect” value with MCF10A [2] worked out at 19.8%. Also, the percent viability in the data set with MCF10A [3] worked out at 20.2%.
In the case of UUGCAUGUCAGAUUGUAAUUCCC [hsa-miR-4666b], the “5+ nucleoli phenotype percent effect” value with MCF10A [1] was -10.4%. Moreover, the “one-nucleolus phenotype percent effect” value in the data set on MCF10A [2] is 5.21%. In the data set on MCF10A [3], the percent viability was 64.4%.
Regarding “CGGGCAUGCUGGGAGAGACUUU [hsa-miR-6862-5p]”, in the data set with MCF10A [1], the “5+ nucleoli phenotype percent effect” value was -13%. In the data set on MCF10A [2], the “one-nucleolus phenotype percent effect” value was determined as 31.7%. Moreover, the percent viability with MCF10A [3] is 21.6%.
Regarding “UCCAGUACCACGUGUCAGGGCCA [hsa-miR-770-5p]”, the “5+ nucleoli phenotype percent effect” value in the data set with MCF10A [1] was -28.6%. Also, the “one-nucleolus phenotype percent effect” value with MCF10A [2] was determined as 29.4%. Besides, in the data set on MCF10A [3], the percent viability came out at 55.6%.
